Test results published in the DeepSol protein solubility set.

Assay: soluble on expression in E. coli; label from the status in PepcDB or PDB records

Sequence	soluble on expression in E. coli
MARPIGIYEKATPKQFTWRERLQFAKDLGFDFVEMSVDESDARLARLEWTKEERLDLVKAIYETGIRIPTICFSGHRRYPLGSNDPAIEAKSLKLMKQCIELAQDLGVRTIQLAGYDVYYEKKSPETRARFIKNLRQSCDWAEEAQVMLSIEIMDDPFINSIEKYLAVEKEIDSPYLFVYPDAGNVSAWHNDLWSEFYNGHKSIAALHLKDTYAVTETSKGQFRDVPFGQGCVDWQELFAVLKKTNYNGPFLIEMWSENCDTVEETKAAIKEAQDFLYPLIEKAGLT	not soluble
MARQTKPLSVKEIESAKPKEADYVLYDGDGLELLIKSSGSKIWQFRYIRPVTKTRAKKSIGPYPSVTLADARNYRAESRSLLAKQIDPQEHQQEQLRSSLEAKTNTFQLVAERWWNVKKASVTEDYAEDIWRSLERDVFPAIGDVSVTDIKAHTLVQAVQPVQARGALETVRRLCQRINEVMIYAQNTGLIDAVPSVNIGKAFEKPQKKNMPSIRPDQLSQLMQTMRTASISLSTRCLFMWQLLTITRPAEAAEARWEEVDIEAQEWKIPAARMKMNRDHTVPLSDEAIAVLEMMKPLSGNREFIFPSRIKPNQPMNSQTVNASLKRAGFGGVLVSHGLRSIASTALNEQGFPPDAIEAALAHVDKNEVRRAYNRSDYLEQRRPMMQWWANFVMAADRGSMIEGGIKGMKLVG	not soluble
MARRGNKAIRATVSMKIALSEPLLVLVNNYVKALRFTLFWLKENVPNPEEKGVLSKVHEALYEKLREEYNLPSKVAEDCYREALATYKGWYNNPRRGRFPRVYRPTVWLTPRASYNVDFEAMTVRIVSVGELSILGYPRNLKEYMGWKMKEARLVIRDDKAFLKVVFEKEEQKVEPKESIAVDINMAEVVVGKDDKNYVRIPTRLEEVHHWKSLAERLLKKYPRRWRENKRILYRVRSFHLKARRIMEDFARKVGKWVVDVAKRMGVNVIKLESLKNLIKSVEKLSKEFRDKLYLMQYRRLQYWISWQAKKRGMTVEFVNPSYSSVSCPKCGKRMVEVSHRWFKCSCGYENDRDVIAIMNLNGRGSLTLSTAPQMRDVNPNRLEHHHHHH	not soluble
MARRNSSIKPVFCFFAEFCMVSTSLWMDTEILPEASALKGDVHCDVAVVGSGIAGLSTAYELSKRDQSVIVIDRKGIASGMTARTSAHLAPLCDDLMSEFRKLRGPEIAKLFYESQAAAVDRIEEIQASETIACDFRRLDGYLFQGHGMPADVLDEELEAVREVGAPVHRLVGVPLKGCENRHVLRYPRQATFHPLKYLAGVAAVCQTHGVRFFANSPVEEVAQGDGDVTLRTAQGQITAGNAVIATNASITDRYQLHSKVAPYRTYVLAFAIARGELPDALYWDTEDPYHYVRLQLGSDDHDVVLIGGEDHKSGEANDAEKRFAKLESWARELIPGLGRVTHRWSGQVLDTIDYAGFIGREPGSERIYLAMGDSGQGLTHGVMGAMLNTSLILGEHNPWSAVYAPGRTPLAAARNFLRENLTILQNLAEYVAPGEIASLEKIEPSEGAILRRGFEKIAAYRDKAGELHLHSASCTHIGCHLHWNSFETCWDCPCHGSIFAPNGQPINAPAVSALRPVKVLEHHHHHH	not soluble
MARTAAALHILVKHKEQADDILAQLKKGAKFHVLAKKYSTCPSGKKGGDLGEFRQGQMVPAFDKACFQGEVLTPQLVKTKFGWHVVKVLYRT	not soluble
MASAHQTPADANGGESRDEILRAAAELFMEFGYAATSIDAVAQRLGSTKGRIYHHYRSKADLFFDVQVTAMNRLTAQVEPLAREGGGAVGRLAAMALRHTQILLKEMPMQKVAVQGLERHLLEASSAAKRLRAVVKMRDDYEQMFVEVIDDGIREGSFVDLPPRLLSKPFFGALNWATVWYSQRRLQSEEAIDDIAHALAAYALRGLLKDSNDEAARETALFRYDLG	not soluble
MASALRPPRVPKPKGVLPSHYYESFLEKKGPCDRDYKKFWAGLQGLTIYFYNSNRDFQHVEKLNLGAFEKLTDEIPWGSSRDPGTHFSLILRNQEIKFKVETLECREMWKGFILTVVELRVPTDLTLLPGHLYMMSEVLAKEEARRALETPSCFLKVSRLEAQLLLERYPECGNLLLRPSGDGADGVSVTTRQMHNGTHVVRHYKVKREGPKYVIDVEQPFSCTSLDAVVNYFVSHTKKALVPFLLDEDYEKVLGYVEADKENGENVWVAPSAPGPGPAPCTGGPKPLSPASSQDKLPPLPPLPNQEENYVTPIGDGPAVDYENQDVASSSWPVILKPKKLPKPPAKLPKPPVGPKPEPKVFNGGLGRKLPVSSAQPLFPTAGLADMTAELQKKLEKRRALEH	soluble
MASCQKSIFLGRLTTFTDSNISPTSLIFSSKMSSRTLRSSSSSNAISTKTQPKTEEAPLIPVTKGPVIRMTSNMADKAQNDHSMWPSTSKFESIWGNVLGERVNKSTIAAIREGMKIENKVTCGCRPGQDCSTNPACRCFQTASRLREHFGSDILTRGKPVKTVDTMYWDRPMFACSGSCGCKGQCNLNALQDICEDPAKKFKITRTDGKGFCVYSARVIKKGSPVLEFSGEITDYLAIKSNADIEQYSIMLYNNETKLCDFFSKEENLSSKYKKILWSAYRSKAWINPLNRGNCARFFSHGCKANMELGRVFQGGFSPADMKIVLFAKEIIKPGTELTFNYGPSYKEIFLGNKCLCEACKKEAVKKLENAVKRILKNSRDPSEPPSKKKSVKKLDGKENVR	not soluble
MASFIDLSSADLSPLSGALHGPDRVARALLIQGGALVPPRPMLWPCAGDMLNGLHILGDLHAPDVDLLVAKRVVAGGSGAHLKLDDQLVYAEGAYPYYVQHWYQHDIARQAWDFDAPVTHRLDRAFVITHFNFVWGHWLTEMYPKLFVIRALNAAGITAPLLLPRTAPGYVARIVRMMLPDQEIVTYDPRDEAVEIGAALLPHMLNRNYVFHDFLRWNLEREALSFTKGGDADMLFVSRGGVRTAQSFRELENEAEIEGLAQEAGLTLVRPETLGWDQQARLFSRARLVAGEFGSGLHNALLSPQGCQVVSLNWLVEVQSRIGNFRRHDVGYILPADGQARLYSIEPQANQPFTIDPVEFRQKLAIAVDRAQARKAMAGWDDAPFPVDTPELRLLEHHHHHH	soluble
MASGTASMQRPSIEKEPYYHGFLPREDVKTVLKNNGDFVIRISEPQAGSPRSNILSVMHCVPPMEEEIKHYVIKTKGDKIFIEKVSFLSIPEMVEWHLTKKESVQKDVFLIKAISRQAWELDHDNIEPLKKLGEGAFGEVMMGTMKFRKGGKSVQVAIKQAKLSNLTKEQIKEFMGEARVMRSLSHPHVVRFYGVPRRRVNVALCRSLNEFLAKCHRKLRCATPFFVCMSVNWLSVLNELRVFLE	not soluble
MASIAVCPGSFDPVTYGHLDIIKRGAHIFEQVYVCVLNNSSKKPLFSVEERCELLREVTKDIPNITVETSQGLLIDYARRKNAKAILRGLRAVSDFEYEMQGTSVNRVLDESIETFFMMANNQYSFLSSSIVKEVARYDGSVSEFVPPEVELALQQKFRQGGSHHHHHH	soluble
MASIINKQIISPTGRNMEIINYEILKKYPLCDRCFGRLYAKLLHTTNTERGRALKLYKALELEAKIKKAKEKGINYEEELELLKALAKSGVDEIRLEDIEIEKENCPWCRGIFNKQKMEKLLNKAIELLKEYDFDTFLIGTHIPEEIKDLEKEIETEFMESIKQEFGREFGKMLAVRLDKAPDKEYPDIVVHINPYTEEIYLQINPLFIKGRYRKLVRGIPQTRWPCRKCRGKGCELCNYTGKKYPISVEEIIAKPFLEATKGVDAKFHGAGREDIDVRMLGDGRPFVLEIKEPKIRKIDLNKIAEEINKDGRVEVLNLEFGVRKDKVIFKNTPHRKTYRALVECSDKITDEELKLLEKELENRTIYQKTPKRVLHRRADLERIRKVYKVKTSKVDDNHFEMIIYCDGGLYIKELISGDDGRTNPSVSSILNKNCICKELDVLKIHDNNLLEKG	soluble
MASQPTNAVSAEQLMLSKMQAMQAQVQPPEFIVSANPLDQQALNAPLSFSQAMTNVLDTVNQHQSAASQKMTAVETGQSDDLVGAMVASQKASLSFNALMQVRNKVVASFEDIMKMPV	not soluble
MASRLFGVKCHNTDSEPLKNEDLLKNLLTMGVDIDMARKRQPGVFHRMITNEQDLKMFLLSKGASKEVIASIISRYPRAITRTPENLSKRWDLWRKIVTSDLEIVNILERSPESFFRSNNNLNLENNIKFLYSVGLTRKCLCRLLTNAPRTFSNSLDLNKQMVEFLQAAGLSLGHNDPADFVRKIIFKNPFILIQSTKRVKANIEFLRSTFNLNSEELLVLICGPGAEILDLSNDYARRSYANIKEKLFSLGCTEEEVQKFVLSYPDVIFLAEKKFNDKIDCLMEENISISQIIENPRVLDSSISTLKSRIKELVNAGCNLSTLNITLLSWSKKRYEAKLKKLSRFAHHHHHH	soluble
MASRVDETTVPSYYYYVDPETTYTYQQPNPLQDLISVYGLDDISRQVARTNLDGTKAVKLRKSYKNQIADLSGKFSTIPTRENGKGGQIAHILFQNNPDMMIQPPQQGQNMSEQQWREQLRNRDIALFQPPNFDWDLCSSVLSQFERSYPSEFANQNQGGAQAPFDIDDLAFDLDGTGKSQSGSNSGNNSKKRKNKSSGSSMATPTHSDSHEDMKRRRLE	soluble
MASSGYLYSLVAEDGVWQAFVSKAKLSRERAVALHKALRELTALLAIADRGRLQKGLKGREKFLKVFPRLKAELVEHISQLHALADHAEKLHRGCTISNVVADSFSAASDILSLLGLFLAPVTAEGSLVLSATGLGLGVAATVTDVATSIVEETSRVLDEVEAAPTGTHVLGEAGTSVDRIASKVPQATRDITRDLEALEQHMNALRLVRANPRLEEDARILATTGSISAQRAMQVRASLKGTPLAMSNEARIQRATAAGAALWSDVDSLVKESKHLYEGSASESAEALRKLARELEEKLEGLMEFYKTI	soluble
MASTARSLRYALAILTTSLVTPSVWAHAHLTHQYPAANAQVTAAPQAITLNFSEGVETGFSGAKITGPKNENIKTLPAKRNEQDQKQLIVPLADSLKPGTYTVDWHVVSVDGHKTKGHYTFSVK	soluble
MASTDTYNPTRDDFAAMLDESFAGGNLQESSVIKGKVVAIEKDMAVIDVGLKTEGRVPLREFAGPGRDNEIKVGDTVEVFLDRIENALGEAVLSRDKARREESWGKLEKAFQNNEKVFGVIFNQVKGGFTVDLDGAVAFLPRSQVDIRPIRDVAPLMNNSQPFQILKMDRRRGNIVVSRRTVLEETRAEQRQELVQNLEEGQVIDGVVKNITDYGAFVDLGGIDGLLHVTDIAWRRVNHPTEVLTIGQTVKVKIIKINHETHRISLGMKQLLDDPWQGIEAKYPLNARFTGRVTNITDYGAFVELEPGIEGLIHVSEMSWTKKNMHPGKIVSTSQEVEVQVLEVDSVKRRISLGLKQTMRNPWEVFVEKHPVGSTVEGEVKNKTEFGLFLGLDGDVDGMVHLSDLDWKLPGEQVIDNFKKGDMVKAVVLDVDVEKERISLGVKQLEGDPFAEPGDVKKGAVVTCEVLDVKESGIDVQIVGTDFNTFIKRSELARDRNDQRSDRFAVGEKVDARVIQFDKKARKVQVSIKALEVAEEKEAIAQYGSSDSGATLGDILGTALKQRDKLEHHHHHH	soluble
MASTVLNVPIAQPENGSSDKIPKWSARAIKSLAMGELEARKLKYPSTGTEAILMGILVEGTSTVAKFLRGNGVTLFKVRDETLSLLGKSDMYFFSPEHPPLTEPAQKAIAWAIDEKNKSDVDGELTTAYLLLGVWSQKDSAGRQILEKLGFNEDKAKEVEKSMNEDVDLSFKKQGQLEHHHHHH	soluble
MATAHYHGSCQCGSVSFEVDADLDHTVICNCSRCKRLGSTLAFAPREKFTLLSGEDKLSEYLFNKHKIHHFFCSTCGIESFAYADGPDGTPMVAVNANCLDGVDPRALKSQAFDGAA	not soluble
MATAHYHGSCQCGSVSFEVDADLDHTVICNCSRCKRLGSTLAFAPREKFTLLSGEDKLSEYLFNKHKIHHFFCSTCGIESFAYADGPDGTPMVAVNANCLDGVDPRALKSQAFDGAAA	soluble
